Test results reported in article PMC10154539 (Cell Reports, 2023).
Where a chain is given by its changes, count along the chain named.

B1: XG005a (antibody, V domains shown)
VH: QITLKESGPTLVKPTQTLTLTCTFSGFSLSTSGVGVGWIRQPPGKALEWLALIYWDNDKRYSPSLKSRLTITMDTSKNQVVLTMTNMDPVDTATYYCARLPSTDTIFDYWGQGALVTVSS
VL: QSALTQPASVSGSPGQSITVSCTGTSSDVGDYNYVSWYQQHPGKAPKLMIYDVSKRPSGVSNRFSGSKSGKTASLTISGLQAEDEADYYCSSYTSTSVVFGGGTKLTVL
B2: XG005 (antibody, V domains shown)
VH: QVTLRESGPTLVKPKQTLTLTCTFSGFSLSTPGGGVGWIRQPPGKALEWLALIYWDDDKRYSPSLKSSLTITKDTSKNQVVLTMTNMDPVDTATYYCARLTAADTIFDCWGQGTLVTVSS
VL: B1 VL with Q16L, V20I, G24A, D31A, K44Q, G70A, K71N, S95T
B3: XG005c (antibody, V domains shown)
VH: B1 VH with N57D, M73K, L82V, S102A, Y109S, A114T
VL: B1 VL with V20I, D31A, K71Y, A82P, Y89F, S95T

How the values were obtained:
[1] = molecular target: T1, S-ECD protein of SARS-CoV-2 Omicron (B.1.1.529) (SARS-CoV-2 B.1.1.529 (Omicron), strain); assay: ELISA
[2] = molecular target: T1, S-ECD protein of SARS-CoV-2 Omicron …; assay: cell-based or functional assay
[3] = molecular target: SARS-CoV-2 Spike protein (ECD, His & FLAG tag), Wuhan-Hu-1 (wild-type) (SARS-CoV-2 Wuhan-Hu-1, UniProt P0DTC2); assay: ELISA

Binder	ELISA AUC [1]	IC50 of neutralization of Omicron pseudovirus, Huh-7 cells, luciferase [2] [µg/mL]	binding result [3]
B1	~26	> 10	
B2	~30		binds
B3	~30	2	
